Test results published in publication PMC3501500, “Conformational Selection Underlies Recognition of a Molybdoenzyme by Its Dedicated Chaperone” (PLoS ONE, 2012).

Legend:
NarG(1–15) peptide = molecular target: T1, NarG(1–15) peptide (Escherichia coli, UniProt P09152); details: 2 µM NarJT, 50 mM Tris-HCl pH 7.5, 1 mM MgCl2, 296 K; peptide stock 50 µM
T1 sequence (P09152 whole entry, looked up): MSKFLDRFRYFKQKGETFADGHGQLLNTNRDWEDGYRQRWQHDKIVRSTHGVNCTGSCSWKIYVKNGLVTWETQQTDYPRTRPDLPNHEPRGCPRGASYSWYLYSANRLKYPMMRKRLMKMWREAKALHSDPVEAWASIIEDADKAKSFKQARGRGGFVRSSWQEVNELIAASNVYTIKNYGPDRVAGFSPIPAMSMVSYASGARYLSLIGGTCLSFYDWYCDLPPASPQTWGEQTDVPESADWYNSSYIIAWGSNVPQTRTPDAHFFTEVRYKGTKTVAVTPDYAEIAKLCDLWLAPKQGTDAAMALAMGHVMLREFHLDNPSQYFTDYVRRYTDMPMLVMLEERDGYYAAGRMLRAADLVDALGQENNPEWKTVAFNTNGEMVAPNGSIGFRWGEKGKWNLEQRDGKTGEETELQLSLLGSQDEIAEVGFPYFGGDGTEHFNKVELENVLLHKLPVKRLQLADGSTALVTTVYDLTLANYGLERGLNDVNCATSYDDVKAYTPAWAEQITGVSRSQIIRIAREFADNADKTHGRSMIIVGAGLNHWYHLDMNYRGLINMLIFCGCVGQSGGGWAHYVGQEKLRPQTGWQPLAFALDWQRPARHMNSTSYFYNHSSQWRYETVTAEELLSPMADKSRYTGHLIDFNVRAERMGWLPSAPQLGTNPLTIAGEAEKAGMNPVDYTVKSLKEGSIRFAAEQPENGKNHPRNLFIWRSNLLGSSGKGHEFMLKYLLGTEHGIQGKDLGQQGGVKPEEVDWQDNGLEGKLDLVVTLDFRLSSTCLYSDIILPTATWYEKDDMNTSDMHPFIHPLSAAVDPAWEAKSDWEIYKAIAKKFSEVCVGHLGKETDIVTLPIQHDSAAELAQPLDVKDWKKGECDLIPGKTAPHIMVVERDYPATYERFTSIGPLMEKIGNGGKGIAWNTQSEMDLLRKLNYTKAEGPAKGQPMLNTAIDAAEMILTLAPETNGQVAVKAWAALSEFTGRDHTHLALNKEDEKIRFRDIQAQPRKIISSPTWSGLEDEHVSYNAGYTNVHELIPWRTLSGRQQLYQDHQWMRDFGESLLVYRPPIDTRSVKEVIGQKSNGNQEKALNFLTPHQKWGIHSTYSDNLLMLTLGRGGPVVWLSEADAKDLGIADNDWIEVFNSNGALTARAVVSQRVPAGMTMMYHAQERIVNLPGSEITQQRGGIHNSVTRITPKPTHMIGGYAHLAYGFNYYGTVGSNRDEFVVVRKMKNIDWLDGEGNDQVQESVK
Protocol: Tryptophan fluorescence spectroscopy
Increasing concentrations of NarG(1–15) peptide at 50 µM (initial concentration) were then added and the emission fluorescence was scanned. Excitation was at 285 nm and emission was recorded from 310 to 410 nm with excitation and emission band-passes at 2 nm. […] Dissociation constants were calculated by plotting relative fluorescence peak integration against ligand concentration and curve-fitting using Origin software.
Indicated values are the average of at least three independent measurements.

NarJ = details: NMR; isolated NarG(1–15) peptide vs NarJ-bound; ref [18]; cited from earlier work

NarG(1–15) peptide: N-terminal NarG peptide, first 15 residues, chemically synthesized and purified by Synprosis (MSKFLDRFRYFKQKG; UniProt P09152 1-15, looked up, fragment)
maximal decrease of the tryptophan fluorescence of NarJT upon peptide addition (NarG(1–15) peptide): 30% | structure of peptide upon NarJ binding (in words) (NarJ): remains unchanged upon NarJ binding
